# Results reported in US11466080B2, “Methods of treating cancer using anti-LRP1 polyclonal antibodies” (Children's Medical Center Corporation, priority 2017, dated 2022).
# Where two headings read alike, the source gives them in different places.
# T1: prosaposin (PSAP) (Homo sapiens, UniProt P07602)
# T1 sequence (P07602 60-524): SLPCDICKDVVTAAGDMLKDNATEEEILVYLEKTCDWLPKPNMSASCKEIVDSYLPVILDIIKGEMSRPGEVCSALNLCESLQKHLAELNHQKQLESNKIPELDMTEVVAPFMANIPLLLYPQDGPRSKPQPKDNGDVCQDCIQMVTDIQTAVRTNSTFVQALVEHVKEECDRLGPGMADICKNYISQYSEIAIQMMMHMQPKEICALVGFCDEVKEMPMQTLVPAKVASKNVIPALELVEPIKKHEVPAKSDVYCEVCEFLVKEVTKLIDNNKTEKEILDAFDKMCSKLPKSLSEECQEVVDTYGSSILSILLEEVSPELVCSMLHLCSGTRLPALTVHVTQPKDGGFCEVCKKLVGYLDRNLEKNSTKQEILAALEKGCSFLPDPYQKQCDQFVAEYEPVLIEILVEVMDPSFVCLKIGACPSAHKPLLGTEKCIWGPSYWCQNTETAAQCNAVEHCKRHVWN
# B1: RAP: Receptor Associate Protein (RAP), a competitive inhibitor or LRP1 binding (protein, UniProt P30533 35-357, looked up)
# Alpha-2-macroglobulin …: YSREKNQPKPSPKRESGEEFRMEKLNQLWEKAQRLHLPPVRLAELHADLKIQERDELAWKKLKLDGLDEDGEKEARLIRNLNVILAKYGLDGKKDARQVTSNSLSGTQEDGLDDPRLEKLWHKAKTSGKFSGEELDKLWREFLHHKEKVHEYNVLLETLSRTEEIHENVISPSDLSDIKGSVLHSRHTELKEKLRSINQGLDRLRRVSHQGYSTEAEFEEPRVIDLWDLAQSANLTDKELEAFREELKHFEAKIEKHNHYQKQLEIAHEKLRHAESVGDGERVSRSREKHALLEGRTKELGYTVKKHLQDLSGRISRARHNEL
# Experiments:
# [1] = tested on: Tsp-1; test: Western blot of Tsp-1 in lung fibroblasts treated with LN4 conditioned media; assay type: cell-based; details: WI38 cells, LN4 CM with Rac1 inhibitor
# Description: FIG. 11. Western blot analysis of Tsp-1 and β-actin expression in lung fibroblasts that were untreated (−) or treated with LN4 CM alone or in combination with STI.
# FIG. 12. Western blot analysis of Tsp-1 and β-actin expression in lung fibroblasts that is were untreated (−) or treated with LN4 CM alone or in combination with Rac1 inhibitor.
# Attention was then turned to the mechanism by which PC3M-LN4 cells repress Tsp-1 in the tumor microenvironment. In doing so, LN4 conditioned media (CM) was fractionated over a Cu^2+/heparin sepharose column with increasing concentrations of NaCl. The eluted fractions were used to treat lung fibroblasts and Tsp-1 induction was analyzed by western blot. […] By analyzing the protein content of the eluted fractions by tandem liquid chromatography/mass spectrometry (LC/MS), a protein was identified that was present in the active fractions of LN4 CM, but not present in the adjacent fractions or the fractions eluted with the same NaCl concentrations from PC3 CM. The identified protein was the serine protease PRSS2. […] Finally, the signaling pathway emanating from LRP1 that was mediating the PRSS2-induced repression of Tsp-1 was sought to be delineated. […]
# [2] = tested on: p53; test: Western blot of p53 in prostate fibroblasts treated with PC3-conditioned media; assay type: cell-based
# Description: (§1) FIGS. 6A-6B. Western blot analysis of: (FIG. 6A) Tsp-1 and β-actin expression in prostate fibroblasts that were untreated (−) or treated with conditioned media from PC3 cells alone or in combination with RAP, and (FIG. 6B) Tsp-1, p53 and β-actin expression in prostate fibroblasts that were untreated (−) or treated with conditioned media from PC3 cells alone or in combination with the PKC inhibitor Gδ 6983 (PKCi).
# (§2) Thus, in order to determine how prosaposin was able to stimulate the expression of Tsp-1 and p53 in tumor-associated fibroblasts, prostate fibroblasts were treated with PC3-conditioned media in the presence and absence of Receptor Associate Protein (RAP), a competitive inhibitor or LRP1 binding. […] To determine whether prosaposin-mediated stimulation of Tsp-1 utilized this pathway, fibroblasts were treated with CM from PC3 cells in the presence and absence of the PKC inhibitor Gö 6983. […] Thus, it is believed that Prosaposin functions via binding to LRP1.
# [3] = tested on: Tsp-1; test: Western blot of Tsp-1 in prostate fibroblasts treated with PC3-conditioned media; assay type: cell-based
# Description: as §1, §2
# [4] = tested on: Tsp-1; test: Western blot of Tsp-1 in lung fibroblasts treated with psap peptide; assay type: cell-based; details: peptide with 25 or 50 μg rhRAP or with Y27632
# Protocol: FIGS. 8A-8B. Western blot analysis of Tsp-1 and β-actin expression in lung fibroblasts, which were (FIG. 8A) untreated (−) or treated with psap peptide alone or in combination with 25 or 50 μg of rhRAP, and (FIG. 8B) untreated (−) or treated with psap peptide alone or with Y27632.
# In order to delineate the pathway leading from LRP1 to Tsp-1 stimulation by prosaposin, two pathways that have been reported to be stimulated by LRP1 under different conditions were chosen to be examined: Rho and Rac.
# [5] = biological target: T1, prosaposin (PSAP); test: Co-immunoprecipitation of LRP1 peptides with PSAP; assay type: binding
# Protocol: (§3) FIGS. 16A-16B. Co-immunoprecipitation of LRP1 peptides with PSAP (FIG. 16A) or PRSS2 (FIG. 16B).
# (§4) To map the binding sites on LRP1 that binds to prosaposin (PSAP) and/or PRSS2, peptides derived from binding domain I of LRP1 (SEQ ID NOs: 3 and 7-18) were tested for their ability to co-immunoprecipitate with PSAP or PRSS2.
# [6] = biological target: PRSS2 (Homo sapiens, UniProt P07478); test: Co-immunoprecipitation of LRP1 peptides with PRSS2; assay type: binding
# Protocol: as §3, §4
# Sequence of PRSS2 (P07478 16-247 limits assumed): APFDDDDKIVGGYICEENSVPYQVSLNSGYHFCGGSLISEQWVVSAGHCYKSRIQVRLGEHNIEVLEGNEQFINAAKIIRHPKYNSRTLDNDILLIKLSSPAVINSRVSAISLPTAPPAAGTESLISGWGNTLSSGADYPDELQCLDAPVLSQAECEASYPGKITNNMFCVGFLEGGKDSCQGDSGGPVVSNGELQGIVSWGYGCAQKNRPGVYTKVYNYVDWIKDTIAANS
molecule,measurement,setting,value
CCN(CC)CCCC(C)Nc1nc(C)cc(Nc2ccc3nc(C)cc(N)c3c2)n1 (racemic) [Rac1 inhibitor],Tsp-1 levels under LN4 CM in presence of the substance,[1],restored to basal levels
"COc1ccc2c(c1)c(C1=C(c3c[nH]c4ccccc34)C(=O)NC1=O)cn2CCCN(C)C [Gö 6983, reference compound]",stimulation of p53 by PC3-conditioned media in the presence of the substance,[2],abolished the stimulation of Tsp-1 and p53
same,stimulation of Tsp-1 by PC3-conditioned media in the presence of the substance,[3],abolished the stimulation of Tsp-1 and p53
"C[C@@H](N)[C@H]1CC[C@H](C(=O)Nc2ccncc2)CC1 [Peptide Y27632, Y27632, reference compound]",effect of co-treatment on stimulation of Tsp-1 by the peptide,[4],completely abrogated
"Peptide 12: amino acids 140-164 of LRP1, SEQ ID NO: 18, YGTCSQLCTNTDGSFICGCVEGYLL",binding to PSAP (co-immunoprecipitation),[5]; listed as peptide 12,bind to both PRSS2 and PSAP
same,binding to PRSS2 (co-immunoprecipitation),[6],"Peptide 12 (amino acids 140-164 of LRP1, binds to"
same,binding to PRSS2 (co-immunoprecipitation),[6]; listed as peptide 12,bind to both PRSS2 and PSAP
"Peptide 13: amino acids 151-172 of LRP1, SEQ ID NO: 3, FICGCVEGYLLQPDNRSCKAKN",binding to PSAP (co-immunoprecipitation),[5]; listed as peptide 13,bind to both PRSS2 and PSAP
same,binding to PRSS2 (co-immunoprecipitation),[6]; listed as peptide 13,bind to both PRSS2 and PSAP
B1,stimulation of Tsp-1 by PC3-conditioned media in the presence of the substance,[3],no longer stimulated Tsp-1
same,effect of co-treatment on stimulation of Tsp-1 by the peptide,[4],blocked the stimulation of Tsp-1 in a dose-dependent fashion
